{"source": "paper PMC12723162", "about": "“Alphaherpesvirus pUL21 homologs use non-canonical sequences to compete with cellular adaptors for protein phosphatase 1 binding” (The Journal of Biological Chemistry, 2025)", "molecules": {"B1": {"name": "pUL21ΔLR (protein)", "chain": "MELSYATTMHYRDVVFYVTTDRNRAYFVCGGCVYSVGRPCASQPGEIAKFGLVVRGTGPDDRVVANYVRSELRQRGLQDVRPIGEDEVFLDSVCLLNPNVSSELDVINTNDVEVLDECLAEYCTSLRTSPGVLISGLRVRAQDRIIELFEHPTIVNVSSHFVYTPSPYVFALAQAHLPRLPSSLEALVSGLFDGIPAPRQPLDAHNPRTDVVITGTVSEFVQVKHIDRVGPAGVSAPPGPTLRELWWVFYAADRALEEPRADSGLTREEVRAVRGFREQAWKLFGSAGAPRAFIGAALGLSPLQKLAVYYYIIHRERRLSPFPALVRLVGRYTQRHGLYVPRPDDPVLADAINGLFRDALAAGTTAEQLLMFDLLPPKDVPVGSDVQADSTALLRFIESQRLAVPGGVISPEHVAYLGAFLSVLYAGRGRMSAATHTARLTGVTSLVLAVGDVDRLSAFDRGAAGAASRTRAAGYLDVLLTVRLARSQHGQSV", "modifications": "left off: GFP (from the vector pEGFP-N1), end not stated, kept"}, "B2": {"name": "pUL21ΔL (protein)", "chain": "MELSYATTMHYRDVVFYVTTDRNRAYFVCGGCVYSVGRPCASQPGEIAKFGLVVRGTGPDDRVVANYVRSELRQRGLQDVRPIGEDEVFLDSVCLLNPNVSSELDVINTNDVEVLDECLAEYCTSLRTSPGVLISGLRVRAQDRIIELFEHPTIVNVSSHFVYTPSPYVFALAQAHLPRLPSSLEALVSGLFDGIPAPRQPLDAHNPRTDVVITGTVSEFVQVKHIDRVGPAGVSPAPPPNNTDSSSLVPGAQDSAPPGPTLRELWWVFYAADRALEEPRADSGLTREEVRAVRGFREQAWKLFGSAGAPRAFIGAALGLSPLQKLAVYYYIIHRERRLSPFPALVRLVGRYTQRHGLYVPRPDDPVLADAINGLFRDALAAGTTAEQLLMFDLLPPKDVPVGSDVQADSTALLRFIESQRLAVPGGVISPEHVAYLGAFLSVLYAGRGRMSAATHTARLTGVTSLVLAVGDVDRLSAFDRGAAGAASRTRAAGYLDVLLTVRLARSQHGQSV", "modifications": "left off: GFP (from the vector pEGFP-N1), end not stated, kept"}, "B3": {"name": "pORF38-GFP (protein)", "chain": "MEFPYHSTVSYNGVTFYFNERATRAYFICGGCLISIPRKHGGEIAKFGHVVRGVGPGDRSVASYVRSELNRTGKTWAVSSNNNCVFLDRVALLAAGSGAVDRDLCGTFDVEVEDPTLADYLVSLPVTHLTLVAGVDVTRENKLKLFPTPTAINTTNGFMYVPNEASFSLVYMRMLELPESLQELVSGLFDGTPEIRDALNGSNDDEKTSIIVSRRAADVVTEDVKADDVPISGEPYSEKQPRRRKKSDHITLSNFVQIRTIPRVMDIWDPRHKATTHCIRALSCAVFFADEVIFKARKWPGLEDELNEARETIYTAVVAVYGERGELPFFGHAYGRDLTSCQRFVIVQYILSRWEAFNCYAVIEDLTRSYVNALPSDDDTDQVAQDLIRTIVDTANSLLREVGFIGTLAETLLFLPLPQLPCYKETSHLAKKEGVRILRLAKTGVGLSDTVPVDVSVTERHEYEISRYLDTLYSGDPCYNGAVRLCRLLGSSIPIALYYNTISGNAFEPYFAGRRYIAYLGALFFGRVHQTPFGDGKKTQR", "modifications": "left off: GFP, end not stated, kept"}, "B4": {"name": "pORF38-FV255AA (protein)", "chain": "B3 chain with F255A, V256A", "modifications": "left off: GFP, end not stated, kept"}, "B5": {"name": "pUL21-FV242AA (protein)", "chain": "MELSYATTMHYRDVVFYVTTDRNRAYFVCGGCVYSVGRPCASQPGEIAKFGLVVRGTGPDDRVVANYVRSELRQRGLQDVRPIGEDEVFLDSVCLLNPNVSSELDVINTNDVEVLDECLAEYCTSLRTSPGVLISGLRVRAQDRIIELFEHPTIVNVSSHFVYTPSPYVFALAQAHLPRLPSSLEALVSGLFDGIPAPRQPLDAHNPRTDVVITGRRAPRPIAGSGAGSGGAGAKRATVSEAAQVKHIDRVGPAGVSPAPPPNNTDSSSLVPGAQDSAPPGPTLRELWWVFYAADRALEEPRADSGLTREEVRAVRGFREQAWKLFGSAGAPRAFIGAALGLSPLQKLAVYYYIIHRERRLSPFPALVRLVGRYTQRHGLYVPRPDDPVLADAINGLFRDALAAGTTAEQLLMFDLLPPKDVPVGSDVQADSTALLRFIESQRLAVPGGVISPEHVAYLGAFLSVLYAGRGRMSAATHTARLTGVTSLVLAVGDVDRLSAFDRGAAGAASRTRAAGYLDVLLTVRLARSQHGQSV", "modifications": "left off: GFP, end not stated, kept"}, "B6": {"name": "pUL21ΔR (protein)", "chain": "MELSYATTMHYRDVVFYVTTDRNRAYFVCGGCVYSVGRPCASQPGEIAKFGLVVRGTGPDDRVVANYVRSELRQRGLQDVRPIGEDEVFLDSVCLLNPNVSSELDVINTNDVEVLDECLAEYCTSLRTSPGVLISGLRVRAQDRIIELFEHPTIVNVSSHFVYTPSPYVFALAQAHLPRLPSSLEALVSGLFDGIPAPRQPLDAHNPRTDVVITGRRAPRPIAGSGAGSGGAGAKRATVSEFVQVKHIDRVGPAGVSAPPGPTLRELWWVFYAADRALEEPRADSGLTREEVRAVRGFREQAWKLFGSAGAPRAFIGAALGLSPLQKLAVYYYIIHRERRLSPFPALVRLVGRYTQRHGLYVPRPDDPVLADAINGLFRDALAAGTTAEQLLMFDLLPPKDVPVGSDVQADSTALLRFIESQRLAVPGGVISPEHVAYLGAFLSVLYAGRGRMSAATHTARLTGVTSLVLAVGDVDRLSAFDRGAAGAASRTRAAGYLDVLLTVRLARSQHGQSV", "modifications": "left off: GFP (from the vector pEGFP-N1), end not stated, kept"}}, "test_system": "endogenous PP1α", "experiment": "GFP affinity capture / co-IP of endogenous PP1α with GFP-tagged bait", "assay_type": "binding, human", "conditions": "HEK 293T cells, 24 h post-transfection, GFP-Trap, immunoblot, representative of two independent experiments", "text": "Bacterial expression plasmids encoding the mouse PP1γ catalytic domain (residues 7–300)-H6 and pUL21-H6, and mammalian expression vectors encoding pUL21(FV242AA)-GFP, pORF38-GFP and pORF38(FV255AA)-GFP, were described previously ([23]). We note that the mouse and human PP1γ catalytic domains share 100% amino acid identity. pORF38-NLT-H6 was generated by sub-cloning residues 1 to 263 of ORF38 into the vector pOPTnH ([52]). pUL21-RVxF-H6 was generated by inserting the mutations A237V and V239F into pUL21-H6 by QuikChange site-directed mutagenesis. Human PP1α was cloned from HeLa cell cDNA into a vector derived from pF5K (Promega) with an N-terminal Myc epitope tag via restriction-based cloning, and point mutations were introduced into Myc-PP1α by QuikChange mutagenesis. A plasmid encoding pUL21-GFP was generated by sub-cloning a codon-optimized synthetic UL21 gene (GeneArt) into pEGFP-N1 (Clontech), yielding an identical pUL21-GFP amino acid sequence as used in ([23]). pUL21-ΔL, -ΔR and -ΔLR were generated from this vector via inverse PCR, and point mutations were introduced via QuikChange mutagenesis.\nMycoplasma-free human embryonic kidney 293T (HEK 293T) cells (American Type Culture Collection #CRL-3216) were maintained in Dulbecco’s modified Eagle’s medium (DMEM) with high glucose (Merck), supplemented with 10% (v/v) heat-inactivated fetal calf serum and 2 mM L-glutamine (complete DMEM) in a humidified 5% CO2 atmosphere at 37 °C. The identity of the cell line was not independently confirmed.\nMonolayers of HEK 293T cells were transfected with 7.7 μg of DNA per 9 cm dish, using 18 μg/ml 25 kDa branched polyethylenimine (Merck) or using TransIt-LT1 (Mirus) in accordance with the manufacturer’s instructions. Cells were harvested 24 h post-transfection and incubated for 30 min in ice-cold 10 mM Tris pH 7.5, 150 mM NaCl, 0.5 mM EDTA, 0.5% Igepal CA-630 (a.k.a. NP-40), 1% (v/v) EDTA-free protease inhibitor cocktail (Merck) before clarification at 21,000×g for 10 min at 4 °C. Lysate protein concentrations were measured using the bicinchoninic acid (BCA) assay (Pierce) and normalized before affinity capture using GFP-Trap resin (ChromoTek) following the manufacturer’s protocol. Samples were eluted by heating the resin to 95 °C for 5 min in 45 μl 2 × SDS-PAGE loading buffer. Proteins were separated by SDS-PAGE and transferred to 0.45 μm nitrocellulose membranes (PerkinElmer or Cytiva). Membranes were stained with Ponceau S and imaged using a G:Box XX9 (Syngene) before blocking in Tris-buffered saline with 0.1% TWEEN-20 (TBS-T) supplemented with 5% (w/v) non-fat milk powder. Immunoblotting was performed using antibodies diluted in blocking buffer as listed below, and immunoblots were imaged using an Odyssey CLx (LI-COR Biosciences). Densitometry was performed using Image Studio Lite version 5.2 (LI-COR Biosciences), and statistical tests were performed using Prism version 7 (GraphPad).\nThe following primary antibodies and dilutions were used for immunoblotting: rabbit anti-CERT 1:10,000 (Abcam #Ab72536), mouse anti-PP1α 1:1000 (Santa Cruz #sc-271762), mouse anti-Myc 1:4000 (Millipore #05–724), rat anti-tubulin (clone YL1/2) hybridoma supernatant 1:40 ([54]). The anti-CERT antibody was validated using a knock-out cell line. The anti-PP1α antibody has been validated by siRNA knockdown ([55]). The anti-Myc antibody was validated using control experiments lacking Myc-tagged transfected constructs ([56]). The anti-tubulin antibody has been validated by immunofluorescence microscopy, immuno-electron microscopy and radiolabeled immunosorbent assay ([54]). Secondary antibodies from LI-COR Biosciences were diluted 1:10,000 as follows: IRDye 680RD goat anti-rat (#926–68029) and goat anti-mouse (#926–68020), or IRDye 800CW goat anti-rabbit (#926–32221).", "note": "Residue numbers refer to the chain shown, from its start.", "data": [{"molecule": "B1", "values": [{"measurement": "Co-IP of endogenous PP1α", "result": "completely abolishes PP1α binding"}]}, {"molecule": "B2", "values": [{"measurement": "Co-IP of endogenous PP1α", "result": "completely abolishes PP1α binding"}]}, {"molecule": "B3", "values": [{"measurement": "Co-IP of endogenous PP1α", "result": "consistently co-immunoprecipitated more efficiently by pORF38-GFP than by pUL21-GFP"}, {"measurement": "Co-IP of endogenous PP1α", "setting": "listed as pORF38", "result": "efficiently precipitate endogenous PP1α"}]}, {"molecule": "B4", "values": [{"measurement": "Co-IP of endogenous PP1α", "result": "the interaction is disrupted by mutation of the TROPPO motif"}, {"measurement": "Co-IP of endogenous PP1α", "setting": "listed as FV255AA", "result": "abolished binding to PP1"}]}, {"molecule": "B5", "values": [{"measurement": "Co-IP of endogenous PP1α", "result": "the interaction is disrupted by mutation of the TROPPO motif"}, {"measurement": "Co-IP of endogenous PP1α", "setting": "listed as FV242AA", "result": "PP1α coIP was abolished"}]}, {"molecule": "B6", "values": [{"measurement": "Co-IP of endogenous PP1α", "result": "binding is retained"}]}]}
